Results on 9 molecules are retold here after publication PMC10657408, “c-di-GMP inhibits the DNA binding activity of H-NS in Salmonella” (Nature Communications, 2023).

For data set [1], the target named is T1, StpA (Salmonella enterica, UniProt P0A1S4, F98Y).
T1 sequence (P0A1S4 1-133 F98Y): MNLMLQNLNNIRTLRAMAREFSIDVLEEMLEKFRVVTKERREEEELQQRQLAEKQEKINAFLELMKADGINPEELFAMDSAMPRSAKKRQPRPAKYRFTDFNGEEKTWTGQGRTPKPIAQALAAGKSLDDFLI
The data set can be described thus: Kd measurement (ITC, Supplementary Fig. […]b). Format: binding.

Data set [2] deals with StpA (Salmonella enterica, UniProt P0A1S4). The data set can be described thus: Kd measurement (ITC, Supplementary Fig. […]b). Format: binding.
The target of another data set is T2, H-NS (Salmonella enterica, UniProt A0A0H3NBY9).
T2 construct: gene hns; full-length, tag-free
Kind of data set: ITC ([…] stoichiometry); also UV-crosslinking competition and EMSA inhibition of DNA binding. (A gel shift assay detects complexes by their altered migration in electrophoresis.)

The target in data set [3] is T3, H-NS (Salmonella enterica serovar Typhimurium (LT2 reference genome; SL1344 also used)) (UniProt P0A1S2).
T3 sequence: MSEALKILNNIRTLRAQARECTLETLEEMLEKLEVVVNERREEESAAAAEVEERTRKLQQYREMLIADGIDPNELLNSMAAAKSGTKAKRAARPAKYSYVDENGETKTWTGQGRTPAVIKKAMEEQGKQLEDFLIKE
The data set can be described thus: ITC. The settings on record: ITC: 25 mM Tris-HCl, 150 mM NaCl, pH 7.5, 20 C, 100 uM DNA into 10 uM protein; EMSA: 20 mM Tris-HCl, 4 mM MgCl2, 100 mM NaCl, 1 mM DTT, 1% NP-40, 10% glycerol ….

For data set [4], the target named is T4, H-NS K107A K107A (Salmonella enterica serovar Typhimurium (LT2 reference genome; SL1344 also used)) (UniProt P0A1S2).
T4 sequence: T3 sequence with K107A
The data set can be described thus: ITC. The following applies: ITC: 25 mM Tris-HCl, 150 mM NaCl, pH 7.5, 20 C, 100 uM DNA into 10 uM protein; EMSA: 20 mM Tris-HCl, 4 mM MgCl2, 100 mM NaCl, 1 mM DTT, 1% NP-40, 10% glycerol ….

In data set [5] the target is T3, H-NS (Salmonella enterica serovar Typhimurium (LT2 reference genome; SL1344 also used)). The data set can be described thus: EMSA. The settings on record: ITC: 25 mM Tris-HCl, 150 mM NaCl, pH 7.5, 20 C, 100 uM DNA into 10 uM protein; EMSA: 20 mM Tris-HCl, 4 mM MgCl2, 100 mM NaCl, 1 mM DTT, 1% NP-40, 10% glycerol ….
The target of data set [6] is T4, H-NS K107A K107A (Salmonella enterica serovar Typhimurium (LT2 reference genome; SL1344 also used)). Kind of data set: EMSA. The settings on record: ITC: 25 mM Tris-HCl, 150 mM NaCl, pH 7.5, 20 C, 100 uM DNA into 10 uM protein; EMSA: 20 mM Tris-HCl, 4 mM MgCl2, 100 mM NaCl, 1 mM DTT, 1% NP-40, 10% glycerol ….
Data set [7] has as its target T5, H-NS T115A T115A (Salmonella enterica serovar Typhimurium (LT2 reference genome; SL1344 also used)) (UniProt P0A1S2).
T5 sequence: T3 sequence with T115A
Kind of data set: ITC. The settings on record: ITC: 25 mM Tris-HCl, 150 mM NaCl, pH 7.5, 20 C, 100 uM DNA into 10 uM protein; EMSA: 20 mM Tris-HCl, 4 mM MgCl2, 100 mM NaCl, 1 mM DTT, 1% NP-40, 10% glycerol ….

Data set [8] deals with H-NS (Salmonella enterica serovar Typhimurium (LT2 reference genome; SL1344 also used)). Kind of data set: ITC. The following applies: ITC: 25 mM Tris-HCl, 150 mM NaCl, pH 7.5, 20 C, 100 uM DNA into 10 uM protein; EMSA: 20 mM Tris-HCl, 4 mM MgCl2, 100 mM NaCl, 1 mM DTT, 1% NP-40, 10% glycerol ….
Data set [9] relates to H-NS K107A (Salmonella enterica serovar Typhimurium (LT2 reference genome; SL1344 also used)). Kind of data set: ITC. The following applies: ITC: 25 mM Tris-HCl, 150 mM NaCl, pH 7.5, 20 C, 100 uM DNA into 10 uM protein; EMSA: 20 mM Tris-HCl, 4 mM MgCl2, 100 mM NaCl, 1 mM DTT, 1% NP-40, 10% glycerol ….

Numbering of substitutions follows the chain as printed.

Take `Nc1nc2c(ncn2[C@@H]2O[C@@H]3CO[P@](=O)(O)O[C@H]4[C@@H](O)[C@H](n5cnc6c(=O)[nH]c(N)nc65)O[C@@H]4CO[P@](=O)(O)O[C@H]3[C@H]2O)c(=O)[nH]1` [c-di-GMP]: the figures for the Kd at StpA [1], on StpA [2] and on H-NS were 640 ± 90 nM, 73000 ± 14000 nM and 270 ± 40 nM, respectively.

In the case of “ATGTTTCATGGATTTCCCTTGAATTACACACACCCGGTTTCGGCATCCTGTCGGCTCCGTTTGAATTATTATCGACATAGCATGTCAGAAAAGTTATCTCTGCATCCTGTAAAGATAGATATCGCAGATTAATTAGTTTTCTGTTTCTCCCCTGAGTATCAGACGCAGTAATTAATCTTTGCGAATATGACATTTCGTCACGGTAATAAATTAAACATTTCGCTAAATAAAAAATAGCCG (double strand) [PfimA]”, the Kd – broadly, the free concentration of one partner at which half of the binding sites on the other are occupied at equilibrium, for simple one-to-one binding – in data set [3] came out at 360 nM; in data set [4], 430 nM. The binding entry in data set [5] and in data set [6] was “binds” in each case.

On to “CAAAACTCATGGTAGTGACTCCTTTAATACCGGATTAAAATAAATAGACTCACCGTCAGGAAACAGTGCCCCGCACTTTATAATGCAACCAGCCTGTTATATTTAAATATTTACCAGAAGAACAGGGTATATTGCTGACAAGAGCCATGAAAATAAAAACACAAAAATTAGCACATAACATAAATACTGAATTACATAAATAAGGAAATGAACATAACAATA (double strand) [PvgrG]”, for which the Kd in [3] amounted to 460 nM; in data set [4] it was 380 nM. For the same molecule, the binding result in data set [7] is listed as “binds more weakly”; in data set [5], “binds”; in data set [6], “binds”.

In the case of PclpV, the results for the dissociation constant Kd in data set [8] and in data set [9] were 310 nM and 320 nM, respectively.

Take PfimA: the Kd is 360 nM in [8] and 430 nM in data set [9].

In the case of PvgrG, the values for the Kd in data set [8] and in [9] were 460 nM and 380 nM, respectively.

On to PyaiU, for which the Kd in [8] was found to be 290 nM.

As to “TAATCGATGGTGTTATCATTAGGAAGATAAATTTCTTCATATATAACCCAGTCGATGACTACAATTACTTTTTAATAAGATGGCGATGTAAAAACATCGTAACAGTTTATTTAATAAATAATTTTTCAAATTGTAAGTTTTTATGTCAATGCTGAAAATGTAATTGTGAATTTATCGGAAAATCCGAATGATAGAATCGCCTGTGACAAGGTATATGTAGACAGCATCCTGATATTGTA (double strand) [PssrAB]”, in [5], the binding entry is recorded as “binds”.

In the case of “TTCCATGTGTTATGCCTTGTGACATAAAAATTCATAAAAATAATGCATCAATGCATATAAATATATAAACAATTCTTTATTGATAGCCTCGAAAAAATATCGAAACAAAACAATGATACAGATCAGGGACTAATTAGCAACTAAGCCGTTAATATTAAATAATCAATGAACAGCAAGATAAAAA (double strand) [PclpV]”, the Kd in data set [3] was found to be 310 nM; in data set [4], 320 nM. Besides, the binding result in data set [7] is given as “binds more weakly”; in data set [5], “binds”; in data set [6] it was “binds”.
